Results on 2 molecules are retold here after article PMC3585378 (PLoS ONE, 2013).

The target in one assay is T1, GST-ubiquitin (UniProt P0CG48 1-76).
T1 construct: also called GST-tagged ubiquitin
The experiment in a line: pull-down. To be noted: both partners purified.

The target of a further assay is His6-ubiquitin (UniProt P0CG48 1-76). Briefly: pull-down. The following applies: both partners purified.

B1: His6-OspG (natural protein)
chain: MKITSTIIQTPFPFENNNSHAGIVTEPILGKLIGQGSTAEIFEDVNDSSALYKKYDLIGNQYNEILEMAWQESELFNAFYGDEASVVIQYGGDVYLRMLRVPGTPLSDIDTADIPDNIESLYLQLICKLNELSIIHYDLNTGNMLYDKESESLFPIDFRNIYAEYYAATKKDKEIIDRRLQMRTNDFYSLLNRKYL
notes: source: E. coli BL21 (DE3), purified (Ni-NTA)
Regarding B1, the binding result with GST-ubiquitin is “binds”.

B2: GST-tagged OspG protein (GST-OspG) (natural protein)
chain: MKITSTIIQTPFPFENNNSHAGIVTEPILGKLIGQGSTAEIFEDVNDSSALYKKYDLIGNQYNEILEMAWQESELFNAFYGDEASVVIQYGGDVYLRMLRVPGTPLSDIDTADIPDNIESLYLQLICKLNELSIIHYDLNTGNMLYDKESESLFPIDFRNIYAEYYAATKKDKEIIDRRLQMRTNDFYSLLNRKYL
notes: source: E. coli BL21 (DE3), purified (glutathione-Sepharose)
For B2, the binding result with His6-ubiquitin is “binds”.
